The source of these data is IntAct's records for PubMed 29892012.

B1: Protein VAC14 homolog (Homo sapiens), Q08AM6 (parent)
chain: MNPEKDFAPLTPNIVRALNDKLYEKRKVAALEIEKLVREFVAQNNTVQIKHVIQTLSQEFALSQHPHSRKGGLIGLAACSIALGKDSGLYLKELIEPVLTCFNDADSRLRYYACEALYNIVKVARGAVLPHFNVLFDGLSKLAADPDPNVKSGSELLDRLLKDIVTESNKFDLVSFIPLLRERIYSNNQYARQFIISWILVLESVPDINLLDYLPEILDGLFQILGDNGKEIRKMCEVVLGEFLKEIKKNPSSVKFAEMANILVIHCQTTDDLIQLTAMCWMREFIQLAGRVMLPYSSGILTAVLPCLAYDDRKKSIKEVANVCNQSLMKLVTPEDDELDELRPGQRQAEPTPDDALPKQEGTASGGPDGSCDSSFSSGISVFTAASTERAPVTLHLDGIVQVLNCHLSDTAIGMMTRIAVLKWLYHLYIKTPRKMFRHTDSLFPILLQTLSDESDEVILKDLEVLAEIASSPAGQTDDPGPLDGPDLQASHSELQVPTPGRAGLLNTSGTKGLECSPSTPTMNSYFYKFMINLLKRFSSERKLLEVRGPFIIRQLCLLLNAENIFHSMADILLREEDLKFASTMVHALNTILLTSTELFQLRNQLKDLKTLESQNLFCCLYRSWCHNPVTTVSLCFLTQNYRHAYDLIQKFGDLEVTVDFLAEVDKLVQLIECPIFTYLRLQLLDVKNNPYLIKALYGLLMLLPQSSAFQLLSHRLQCVPNPELLQTEDSLKAAPKSQKADSPSIDYAELLQHFEKVQNKHLEVRHQRSGRGDHLDRRVVL
partner: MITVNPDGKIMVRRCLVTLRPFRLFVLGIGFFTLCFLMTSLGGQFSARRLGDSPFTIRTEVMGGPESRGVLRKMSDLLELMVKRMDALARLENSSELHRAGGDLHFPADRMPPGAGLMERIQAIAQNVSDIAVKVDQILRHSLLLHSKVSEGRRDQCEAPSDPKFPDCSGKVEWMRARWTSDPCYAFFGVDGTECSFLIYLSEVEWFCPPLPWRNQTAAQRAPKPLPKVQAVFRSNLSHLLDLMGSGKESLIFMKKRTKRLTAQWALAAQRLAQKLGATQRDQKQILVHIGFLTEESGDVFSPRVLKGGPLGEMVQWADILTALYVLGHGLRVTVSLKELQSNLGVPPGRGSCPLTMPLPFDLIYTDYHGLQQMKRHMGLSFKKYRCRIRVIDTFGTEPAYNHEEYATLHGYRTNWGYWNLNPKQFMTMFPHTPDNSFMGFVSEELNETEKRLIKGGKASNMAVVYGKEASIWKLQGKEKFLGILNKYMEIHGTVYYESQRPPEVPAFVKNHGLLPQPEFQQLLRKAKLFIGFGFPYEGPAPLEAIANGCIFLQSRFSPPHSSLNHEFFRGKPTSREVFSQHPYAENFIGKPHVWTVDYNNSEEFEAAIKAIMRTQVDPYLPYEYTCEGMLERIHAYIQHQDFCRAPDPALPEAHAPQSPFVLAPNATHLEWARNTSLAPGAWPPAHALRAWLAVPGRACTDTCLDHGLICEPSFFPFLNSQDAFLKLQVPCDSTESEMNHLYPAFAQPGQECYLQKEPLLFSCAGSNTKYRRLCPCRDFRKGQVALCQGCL
B2: Ribosome assembly protein METTL17, mitochondrial (Homo sapiens), Q9H7H0 (parent)
chain: MAAALKCLLTLGRWCPGLGVAPQARALAALVPGVTQVDNKSGFLQKRPHRQHPGILKLPHVRLPQALANGAQLLLLGSAGPTMENQVQTLTSYLWSRHLPVEPEELQRRARHLEKKFLENPDLSQTEEKLRGAVLHALRKTTYHWQELSYTEGLSLVYMAARLDGGFAAVSRAFHEIRARNPAFQPQTLMDFGSGTGSVTWAAHSIWGQSLREYMCVDRSAAMLVLAEKLLKGGSESGEPYIPGVFFRQFLPVSPKVQFDVVVSAFSLSELPSKADRTEVVQTLWRKTGHFLVLVENGTKAGHSLLMDARDLVLKGKEKSPLDPRPGFVFAPCPHELPCPQLTNLACSFSQAYHPIPFSWNKKPKEEKFSMVILARGSPEEAHRWPRITQPVLKRPRHVHCHLCCPDGHMQHAVLTARRHGRDLYRCARVSSWGDLLPVLTPSAFPPSTAQDPSES
partner: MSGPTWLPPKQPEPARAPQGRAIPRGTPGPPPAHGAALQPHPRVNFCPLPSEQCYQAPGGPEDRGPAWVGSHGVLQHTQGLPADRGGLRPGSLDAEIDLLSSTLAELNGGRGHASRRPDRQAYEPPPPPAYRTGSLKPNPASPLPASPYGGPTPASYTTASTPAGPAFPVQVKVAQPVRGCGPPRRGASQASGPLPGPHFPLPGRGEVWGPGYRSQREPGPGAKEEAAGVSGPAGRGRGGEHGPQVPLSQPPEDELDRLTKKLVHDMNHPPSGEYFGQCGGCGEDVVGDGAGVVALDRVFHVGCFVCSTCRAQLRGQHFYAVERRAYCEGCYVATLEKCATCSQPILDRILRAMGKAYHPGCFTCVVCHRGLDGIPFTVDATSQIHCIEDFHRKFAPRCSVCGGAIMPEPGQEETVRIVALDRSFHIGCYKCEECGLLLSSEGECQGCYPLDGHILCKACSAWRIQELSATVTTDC
B3: Vacuolar protein-sorting-associated protein 25 (Homo sapiens), Q9BRG1 (parent)
chain: MAMSFEWPWQYRFPPFFTLQPNVDTRQKQLAAWCSLVLSFCRLHKQSSMTVMEAQESPLFNNVKLQRKLPVESIQIVLEELRKKGNLEWLDKSKSSFLIMWRRPEEWGKLIYQWVSRSGQNNSVFTLYELTNGEDTEDEEFHGLDEATLLRALQALQQEHKAEIITVSDGRGVKFF
partner: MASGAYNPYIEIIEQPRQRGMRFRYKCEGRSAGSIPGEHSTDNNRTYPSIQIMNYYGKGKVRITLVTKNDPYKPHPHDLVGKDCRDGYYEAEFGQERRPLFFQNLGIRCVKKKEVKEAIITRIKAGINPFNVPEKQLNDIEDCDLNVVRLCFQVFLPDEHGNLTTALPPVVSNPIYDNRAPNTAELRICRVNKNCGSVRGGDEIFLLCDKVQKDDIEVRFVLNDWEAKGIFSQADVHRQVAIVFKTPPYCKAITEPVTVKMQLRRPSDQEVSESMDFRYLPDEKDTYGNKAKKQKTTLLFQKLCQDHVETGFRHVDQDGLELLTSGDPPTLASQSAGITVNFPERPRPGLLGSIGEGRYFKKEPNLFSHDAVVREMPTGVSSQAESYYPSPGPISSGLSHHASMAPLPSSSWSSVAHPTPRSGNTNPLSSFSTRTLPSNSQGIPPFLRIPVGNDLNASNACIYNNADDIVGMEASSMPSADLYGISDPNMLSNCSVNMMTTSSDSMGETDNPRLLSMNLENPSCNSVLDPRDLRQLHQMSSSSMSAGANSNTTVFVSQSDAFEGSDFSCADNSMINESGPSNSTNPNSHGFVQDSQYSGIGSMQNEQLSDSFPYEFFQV
B4: Keratin, type I cuticular Ha8 (Homo sapiens), O76015 (parent)
chain: MTSSYSSSSCPLGCTMAPGARNVSVSPIDIGCQPGAEANIAPMCLLANVAHANRVRVGSTPLGRPSLCLPPTCHTACPLPGTCHIPGNIGICGAYGENTLNGHEKETMQFLNDRLANYLEKVRQLEQENAELEATLLERSKCHESTVCPDYQSYFHTIEELQQKILCSKAENARLIVQIDNAKLAADDFRIKLESERSLRQLVEADKCGTQKLLDDATLAKADLEAQQESLKEEQLSLKSNHEQEVKILRSQLGEKLRIELDIEPTIDLNRVLGEMRAQYEAMLETNRQDVEQWFQAQSEGISLQDMSCSEELQCCQSEILELRCTVNALEVERQAQHTLKDCLQNSLCEAEDRFGTELAQMQSLISNVEEQLSEIRADLERQNQEYQVLLDVKTRLENEIATYRNLLESEDCKLPCNPCSTSPSCVTAPCAPRPSCGPCTTCGPTCGASTTGSRF
partner: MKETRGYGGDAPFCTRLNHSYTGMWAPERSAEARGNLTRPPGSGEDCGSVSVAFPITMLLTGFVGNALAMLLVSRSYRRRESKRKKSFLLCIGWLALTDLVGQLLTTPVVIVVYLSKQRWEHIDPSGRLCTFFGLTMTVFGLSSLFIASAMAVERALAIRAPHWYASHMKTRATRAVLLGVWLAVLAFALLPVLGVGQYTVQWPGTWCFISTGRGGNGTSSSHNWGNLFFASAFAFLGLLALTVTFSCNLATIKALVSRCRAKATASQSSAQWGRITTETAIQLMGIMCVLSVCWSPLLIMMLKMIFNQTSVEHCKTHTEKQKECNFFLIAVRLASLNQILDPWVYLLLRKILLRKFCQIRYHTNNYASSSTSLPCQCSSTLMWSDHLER

In one test the parent is B1. The conditions noted are these: with mgt5b_human MGAT5B.
With A127S, the “effect of a mutation on the interaction” value is on record as “with no effect”.

In another test the parent is B2. The following applies: with trip6_human TRIP6, Q15654.
With R212H, the “effect of a mutation on the interaction” value was “with no effect”.

Variants of B3 are the subject of a further test. The following applies: with rel_human REL.
As to P58Q, the “effect of a mutation on the interaction” value is “disrupting interaction strength”.

The variants in another test derive from B4. The following applies: with pe2r3_human PTGER3, P43115.
With N270K, the “effect of a mutation on the interaction” value is recorded as “with no effect”.

In another test the parent is B4. The following applies: with pe2r3_human PTGER3, P43115. This is another data set of the same source.
For D306A, the “effect of a mutation on the interaction” value is “with no effect”.
